According to US12576141B2 (AlbuNext, LLC, priority 2023, dated 2026):

Tests used:
GLP-1 receptor = GLP-1 receptor (Homo sapiens, UniProt P43220); conditions: cited from earlier work
[1] = suitable for once weekly dosing; cited from earlier work
[2] = monotherapy, cited from earlier work
Cys34 of rat albumin = target: T1, Cys34 of rat albumin (Rattus norvegicus, UniProt P02770); assay: electrophoresis of plasma samples from injected rats (translocation to rat albumin); assay type: in vivo
T1 construct: plasma samples collected from the rats that were injected s.c. and i.v; from tissue; host or cells: rat plasma (in vivo, circulating albumin)
T1 sequence (P02770 25-608): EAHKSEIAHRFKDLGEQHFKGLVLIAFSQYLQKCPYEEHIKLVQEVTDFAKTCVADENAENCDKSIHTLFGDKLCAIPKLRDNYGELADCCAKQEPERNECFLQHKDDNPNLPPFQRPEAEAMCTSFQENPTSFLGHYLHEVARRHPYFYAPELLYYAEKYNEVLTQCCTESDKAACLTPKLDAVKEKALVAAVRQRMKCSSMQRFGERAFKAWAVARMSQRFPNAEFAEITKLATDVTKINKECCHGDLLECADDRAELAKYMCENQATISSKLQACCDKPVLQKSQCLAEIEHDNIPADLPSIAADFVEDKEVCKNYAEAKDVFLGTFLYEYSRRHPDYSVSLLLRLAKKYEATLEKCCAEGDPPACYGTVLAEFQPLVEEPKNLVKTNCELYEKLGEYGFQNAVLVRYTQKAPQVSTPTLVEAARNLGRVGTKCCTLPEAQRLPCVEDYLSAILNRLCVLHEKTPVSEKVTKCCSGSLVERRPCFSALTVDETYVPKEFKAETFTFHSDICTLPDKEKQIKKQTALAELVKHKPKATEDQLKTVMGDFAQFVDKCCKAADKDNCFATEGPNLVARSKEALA
Description: To further investigate the apparent inconsistencies supplementary electrophoresis experiments were conducted on the plasma samples collected from the rats that were injected s.c. and i.v. as noted above, and exemplary results are depicted in FIG. 30. As can be readily seen in the gel image, when conformationally unmodified AB-013 is tested in an electrophoresis experiment only one band is observed in the area where an albumin-exendin-4 MPA covalent construct would be observed. Completely unexpectedly, all time points taken during the experiment, including the earliest ones, had two bands in the area related to an albumin-exendin-4 MPA covalent construct.
This initial observation was further supported when a dynorphin-A-MPA peptide was injected intravenously to rats. Importantly, this dynorphin-A-MPA peptide was not conjugated to human albumin or any other type of albumin. […] In a similar fashion, the dynorphin-A-MPA peptide was also conjugated to human conformationally unmodified albumin in vitro to form a covalent bond between it and the Cys34 of human albumin. The dynorphin a human albumin covalent construct was injected intravenously to rats.

Sequence of GLP-1 receptor (P43220 24-463, species assumed): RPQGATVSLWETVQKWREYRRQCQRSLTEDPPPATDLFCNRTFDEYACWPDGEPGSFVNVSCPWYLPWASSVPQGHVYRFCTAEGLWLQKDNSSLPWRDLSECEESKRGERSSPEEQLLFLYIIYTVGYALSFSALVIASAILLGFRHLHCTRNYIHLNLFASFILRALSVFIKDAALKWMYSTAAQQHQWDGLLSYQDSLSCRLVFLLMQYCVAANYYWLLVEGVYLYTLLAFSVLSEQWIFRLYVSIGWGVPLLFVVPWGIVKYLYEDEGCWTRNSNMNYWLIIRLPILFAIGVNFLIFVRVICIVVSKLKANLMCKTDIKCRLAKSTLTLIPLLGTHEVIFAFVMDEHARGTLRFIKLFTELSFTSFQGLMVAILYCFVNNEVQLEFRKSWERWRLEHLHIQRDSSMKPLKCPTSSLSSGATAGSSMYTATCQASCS

Substance	GLP-1 receptor affinity (GLP-1 receptor) [nM]	half-life [1] [h]	decrease in HbA1c from baseline ([2]; 30 mg weekly dose, week 52) [%]	change from baseline of HbA1c ([2]; 50 mg weekly dose) [%]	bands on electrophoresis gel in the area of the albumin covalent construct (Cys34 of rat albumin; rat plasma, all time points)	bioconjugation in vivo with rat albumin (Cys34 of rat albumin; rats, intravenous, peptide not conjugated to albumin)
albiglutide: albumin fusion protein in which a tandem repeat of Gly8 GLP-1 is fused to N-terminus of human serum albumin	20	140 to 190	−0.7	−0.9		
dynorphin-A-MPA peptide: dynorphin-A-MPA peptide not conjugated to any albumin, injected for in vivo bioconjugation					only one band	did indeed occur
